Experimental data reported in PMC2756776 (Arteriosclerosis, thrombosis, and vascular biology, 2009).

Target: Factor XI (FXI), plasma-derived (human)
Test: ELISA

Kd: 61 nM
B1: Soluble recombinant ApoER2’ (a splice variant of ApoER2 lacking LDL-binding domains 4, 5 and 6) (receptor)
chain: not shown
